In US20250092135A1 (NANJING LEADS BIOLABS, published 2025):

Biological target: T1, rhesus monkey MUC16 protein (ECT_TM RhMuc16) on 293T cells (rhesus monkey)
T1 chain: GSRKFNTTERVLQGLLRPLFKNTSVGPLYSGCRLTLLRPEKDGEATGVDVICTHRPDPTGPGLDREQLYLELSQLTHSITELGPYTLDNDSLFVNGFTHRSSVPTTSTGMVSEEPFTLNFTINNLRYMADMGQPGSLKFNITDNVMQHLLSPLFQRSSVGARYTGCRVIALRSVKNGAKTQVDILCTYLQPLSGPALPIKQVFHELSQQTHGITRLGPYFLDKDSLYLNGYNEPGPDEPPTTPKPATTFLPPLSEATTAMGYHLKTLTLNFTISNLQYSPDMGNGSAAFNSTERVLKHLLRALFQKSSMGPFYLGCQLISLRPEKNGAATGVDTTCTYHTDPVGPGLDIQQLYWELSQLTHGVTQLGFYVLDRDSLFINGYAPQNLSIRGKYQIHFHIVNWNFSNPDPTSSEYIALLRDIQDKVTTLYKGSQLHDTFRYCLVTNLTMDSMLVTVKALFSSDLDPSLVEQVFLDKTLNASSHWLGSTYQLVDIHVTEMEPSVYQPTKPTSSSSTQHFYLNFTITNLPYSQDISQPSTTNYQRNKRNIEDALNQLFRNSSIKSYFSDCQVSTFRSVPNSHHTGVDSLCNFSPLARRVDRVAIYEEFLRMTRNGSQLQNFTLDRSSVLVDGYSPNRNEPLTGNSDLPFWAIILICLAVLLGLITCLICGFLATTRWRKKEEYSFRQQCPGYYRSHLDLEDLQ
Experiment: flow cytometry, 293T/rhesus MUC16 cells, PE anti-human IgG Fc secondary, MFI; EC50 table under the plot, unit from the axis Conc.(nM)
Procedure: The serially diluted anti-human MUC16 antibodies (at an initial concentration of 200 nM, 4-fold dilution, 8 points in total) obtained in the present application were added to the cells, and the cells were incubated at 4° C. for 30 min. The cells were washed twice with PBS, and then fluorescent secondary antibody R-PE-conjugated AffiniPure Goat Anti-Human IgG, Fcγ Fragment Specific (Jackson ImmunoResearch, Cat #109-116-098) was added. The cells were incubated at 4° C. for 30 min. The cells were washed twice with PBS and then resuspended, and finally, fluorescence signals were detected using a BD Accuri C5 (BD Bioscience) flow cytometer.

- EC50: 5.01 nM
B1: anti-MUC16 antibody 776.1(C33S) (antibody, human IgG1, kappa, L234A L235A, V domains shown)
VH: EVQLQQSGPELVKPGASVKISCKASGYTFTDYNIHWVKQSHGKILEWIGYIYPYNGVSDYNQNFKSKATLIVDNSSNTAYMELRSLTSEDSAVYYCARWDFGSGYYFDYWGQGTTLTVSS
VL: QIVLSQSPAILFASPGETVTMTCRASSSVIYMSWNQQKPGSSPKPWIYGTSTLASGVPTRFSGSGSGTSYSLTISRVEAEDAATYYCQQWSSNPFTFGSGTKLEIKR
